Series [1] has as its target T1, Δ14ArtA (Staphylococcus aureus plasmid pSK41, UniProt Q52270 15-62, del1-14).
T1 chain: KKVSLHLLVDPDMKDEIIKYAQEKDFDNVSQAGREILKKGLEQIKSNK
Kind of series: fluorescence polarization. For orientation: Fluorescence polarisation rises when a labelled molecule tumbles more slowly, as on binding a larger partner.

Series [2] addresses T2, ArtA (Staphylococcus aureus plasmid pSK41, UniProt Q52270 1-62).
T2 sequence: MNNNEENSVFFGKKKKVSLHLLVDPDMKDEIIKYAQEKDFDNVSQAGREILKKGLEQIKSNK
The experiment in a line: fluorescence polarization.

Series [3] deals with T2, ArtA. The experiment in a line: fluorescence polarization. This is another data set of the same source.
The target in series [4] is T2, ArtA. The experiment in a line: fluorescence polarization. This is another data set of the same source.
Series [5] addresses T2, ArtA. The experiment in a line: fluorescence polarization. This is another data set of the same source.
Series [6] deals with T2, ArtA. Kind of series: crystal structure.
Series [7] addresses T2, ArtA. Kind of series: fluorescence polarization. This is another data set of the same source.

Where two headings read alike, the source gives them in different places.

By Kd is commonly meant a measure of binding affinity in units of concentration.

B1: PartA operator (dsDNA)
DNA 1: TTGTCATGACATGTCATGTGTAA
DNA 2: TTACACATGACATGTCATGACAA
As to B1, the dissociation constant Kd in series [1] is 41 ± 9 nM; in series [2] it was 28 ± 8 nM.

B2: Porf538 right half site (dsDNA)
DNA 1: AAATGACACGT
DNA 2: ACGTGTCATTT
In the case of B2, the binding result in series [1] and in series [2] was “no binding” throughout.

B3: PtraA operator (dsDNA)
DNA 1: TTACATGACATGACATGTAATAC
DNA 2: GTATTACATGTCATGTCATGTAA
Regarding B3, the results for the Kd in series [1] and in series [2] were 52 ± 6 nM and 42 ± 9 nM, respectively.

B4: Porf538 left half site (dsDNA)
DNA 1: ACACGACATCA
DNA 2: TGATGTCGTGT
Consider B4, for which the binding result in series [1] and in series [2] was “no binding” in each case.

B5: Porf538 21-mer (dsDNA)
DNA 1: ACACGACATGAAATGACACGT
DNA 2: ACGTGTCATTTCATGTCGTGT
As for B5, the binding result in series [1] is reported as “no binding”. The results for the Kd in series [3], in series [4] and in series [5] were 60 ± 10 nM, 42 ± 7 nM and 58 ± 5 nM, respectively.

B6: 22-mer operator (dsDNA)
DNA 1: CAAACATGATATGACATGTAAT
DNA 2: ATTACATGTCATATCATGTTTG
B6: the Kd in series [1] was 58 ± 5 nM; in series [2] it was 62 ± 6 nM.

B7: PtraL operator (dsDNA)
DNA 1: TGCATTACATGACATGACATGTAAT
DNA 2: ATTACATGTCATGTCATGTAATGCA
On to B7, for which the Kd in series [1] was found to be 39 ± 5 nM; in series [2], 23 ± 5 nM.

B8: Porf259 11-mer (dsDNA)
DNA 1: ACATGACAGGT
DNA 2: ACCTGTCATGT
In the case of B8, in series [1], the binding result is “no binding”. Binding in series [2] was put at a Kd of 790 ± 34 nM.

B9: 12-mer consensus (crystal) (dsDNA)
DNA 1: GACATGACATGT
DNA 2: CACATGTCATGT
modifications: 5-bromouracil at thymines (MAD DNA only)
As to B9, in series [6], the binding result is listed as “binds”.

B10: 16-mer consensus (dsDNA)
DNA 1: ACATGACATGACATGT
DNA 2: ACATGTCATGTCATGT
For the molecule B10, the results for the Kd in series [1] and in series [2] were 58 ± 3 nM and 60 ± 3 nM, respectively.

B11: Porf259 24-mer (dsDNA)
DNA 1: TAAACATTGCATAACATGACAGGT
DNA 2: ACCTGTCATGTTATGCAATGTTTA
Regarding B11, the binding result in series [1] and in series [7] was “no binding” in each case.

B12: Porf538 Mutant 1 (dsDNA)
DNA 1: ACACTAAATGAAATGACACGT
DNA 2: ACGTGTCATTTCATTTAGTGT
For the molecule B12, the binding result in series [1] and in series [2] was “no binding” in each case.

B13: Porf538 Mutant 2 (dsDNA)
DNA 1: ACACGACATGAAATTAAACGT
DNA 2: ACGTTTAATTTCATGTCGTGT
With B13, the binding result in series [1] and in series [2] was “no binding” each time.

B14: 11-mer consensus (dsDNA)
DNA 1: ACATGACATGT
DNA 2: ACATGTCATGT
Take B14: the Kd was determined as 222 ± 8 nM in series [1] and 127 nM in series [2].

These data come from publication PMC2777438.
